Reference: article PMC12751073

Key:
[1] = target: FLAG-tagged full-length human CHK2, wildtype (immunoprecipitated) (human) (UniProt O96017)
[2] = target: FLAG-tagged full-length human CHK2, wildtype (immunoprecipitated) (human) (UniProt O96017); remark: listed apart in the source
[3] = target: FLAG-tagged full-length human CHK2 K245A (immunoprecipitated) (human) (UniProt O96017)

radiometric kinase assay (CHKtide, [^32P]-γ-ATP) of immunoprecipitated full-length CHK2 with or without CaCl2 and CaM [1]: 10 fold
IC50 of CaM (0-200 μM) for the kinase activity of immunoprecipitated full-length CHK2, radiometric assay, 1 mM CaCl2 [2]: 8.09 µM
fold decrease in radiometric kinase assay of immunoprecipitated full-length CHK2 mutant with or without CaCl2 and CaM [3]: 10 fold
Substance: Calmodulin (recombinant, produced in-house) (from UniProt P0DP23 1-149) (natural protein)
